Test results from IntAct's records for PubMed 35512704.

B1: Mothers against decapentaplegic homolog 4 (Homo sapiens), Q13485 (parent)
chain: MDNMSITNTPTSNDACLSIVHSLMCHRQGGESETFAKRAIESLVKKLKEKKDELDSLITAITTNGAHPSKCVTIQRTLDGRLQVAGRKGFPHVIYARLWRWPDLHKNELKHVKYCQYAFDLKCDSVCVNPYHYERVVSPGIDLSGLTLQSNAPSSMMVKDEYVHDFEGQPSLSTEGHSIQTIQHPPSNRASTETYSTPALLAPSESNATSTANFPNIPVASTSQPASILGGSHSEGLLQIASGPQPGQQQNGFTGQPATYHHNSTTTWTGSRTAPYTPNLPHHQNGHLQHHPPMPPHPGHYWPVHNELAFQPPISNHPAPEYWCSIAYFEMDVQVGETFKVPSSCPIVTVDGYVDPSGGDRFCLGQLSNVHRTEAIERARLHIGKGVQLECKGEGDVWVRCLSDHAVFVQSYYLDREAGRAPGDAVHKIYPSAYIKVFDLRQCHRQMQQQAATAQAAAAAQAAAVAGNIPGPGSVGGIAPAISLSAAAGIGVDDLRRLCILRMSFVKGWGPDYPRQSIKETPCWIEIHLHRALQLLDEVLHTMPIADPQPLD
partner: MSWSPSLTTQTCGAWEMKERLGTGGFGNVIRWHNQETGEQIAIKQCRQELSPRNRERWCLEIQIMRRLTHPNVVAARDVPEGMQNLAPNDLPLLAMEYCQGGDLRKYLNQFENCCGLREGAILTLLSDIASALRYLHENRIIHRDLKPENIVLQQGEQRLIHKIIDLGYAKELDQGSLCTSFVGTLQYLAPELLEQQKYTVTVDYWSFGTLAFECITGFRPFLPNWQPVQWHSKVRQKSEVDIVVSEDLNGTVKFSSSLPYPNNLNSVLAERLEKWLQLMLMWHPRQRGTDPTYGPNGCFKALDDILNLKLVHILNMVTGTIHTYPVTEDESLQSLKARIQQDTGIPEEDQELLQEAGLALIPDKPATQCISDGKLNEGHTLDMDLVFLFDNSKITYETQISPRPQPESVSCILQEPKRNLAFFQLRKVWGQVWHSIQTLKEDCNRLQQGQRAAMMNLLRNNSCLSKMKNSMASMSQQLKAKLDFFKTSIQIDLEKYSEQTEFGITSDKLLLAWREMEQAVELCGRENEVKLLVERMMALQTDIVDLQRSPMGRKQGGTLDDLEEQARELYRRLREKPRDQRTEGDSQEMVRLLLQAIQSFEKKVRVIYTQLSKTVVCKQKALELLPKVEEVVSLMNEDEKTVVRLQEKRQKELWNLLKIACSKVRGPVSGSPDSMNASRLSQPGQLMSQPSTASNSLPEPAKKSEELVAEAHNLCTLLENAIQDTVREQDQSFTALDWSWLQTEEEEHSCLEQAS
B2: Mothers against decapentaplegic homolog 4 (Homo sapiens), Q13485 (parent)
chain: B1 chain
partner: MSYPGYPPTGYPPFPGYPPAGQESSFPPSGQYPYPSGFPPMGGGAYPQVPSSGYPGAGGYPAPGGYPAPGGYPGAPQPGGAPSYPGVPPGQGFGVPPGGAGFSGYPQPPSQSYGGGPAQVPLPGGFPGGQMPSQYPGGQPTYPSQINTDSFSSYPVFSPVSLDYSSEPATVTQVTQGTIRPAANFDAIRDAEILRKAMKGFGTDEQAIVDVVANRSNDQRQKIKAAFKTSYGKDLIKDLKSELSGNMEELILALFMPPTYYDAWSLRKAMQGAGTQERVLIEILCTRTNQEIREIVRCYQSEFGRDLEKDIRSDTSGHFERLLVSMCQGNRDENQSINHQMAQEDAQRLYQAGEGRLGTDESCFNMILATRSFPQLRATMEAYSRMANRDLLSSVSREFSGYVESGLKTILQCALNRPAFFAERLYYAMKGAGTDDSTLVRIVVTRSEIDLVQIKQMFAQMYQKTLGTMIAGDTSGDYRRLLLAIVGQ
B3: Mothers against decapentaplegic homolog 4 (Homo sapiens), Q13485 (parent)
chain: B1 chain
partner: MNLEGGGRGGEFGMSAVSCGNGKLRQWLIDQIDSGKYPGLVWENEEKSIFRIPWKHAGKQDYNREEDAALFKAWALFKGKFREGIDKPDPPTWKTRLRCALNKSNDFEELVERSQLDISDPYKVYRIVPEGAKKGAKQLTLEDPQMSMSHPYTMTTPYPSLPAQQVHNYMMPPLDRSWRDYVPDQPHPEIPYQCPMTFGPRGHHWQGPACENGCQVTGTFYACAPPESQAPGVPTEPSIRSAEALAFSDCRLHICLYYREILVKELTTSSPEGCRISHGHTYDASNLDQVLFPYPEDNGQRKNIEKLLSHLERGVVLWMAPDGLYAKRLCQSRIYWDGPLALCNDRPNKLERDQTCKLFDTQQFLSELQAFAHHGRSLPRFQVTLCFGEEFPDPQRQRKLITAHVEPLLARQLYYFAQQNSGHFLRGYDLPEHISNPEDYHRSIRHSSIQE
B4: Mothers against decapentaplegic homolog 4 (Homo sapiens), Q13485 (parent)
chain: B1 chain
partner: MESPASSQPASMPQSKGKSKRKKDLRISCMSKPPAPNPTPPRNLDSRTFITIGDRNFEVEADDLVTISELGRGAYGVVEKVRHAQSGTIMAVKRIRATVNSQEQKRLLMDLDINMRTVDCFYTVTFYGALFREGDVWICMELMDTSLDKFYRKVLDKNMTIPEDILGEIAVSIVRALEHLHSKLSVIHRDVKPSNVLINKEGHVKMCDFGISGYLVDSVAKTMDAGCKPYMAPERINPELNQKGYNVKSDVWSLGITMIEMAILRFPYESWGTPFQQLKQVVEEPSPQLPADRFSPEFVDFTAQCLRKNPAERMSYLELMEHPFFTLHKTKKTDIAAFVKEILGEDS
B5: Mothers against decapentaplegic homolog 4 (Homo sapiens), Q13485 (parent)
chain: B1 chain
partner: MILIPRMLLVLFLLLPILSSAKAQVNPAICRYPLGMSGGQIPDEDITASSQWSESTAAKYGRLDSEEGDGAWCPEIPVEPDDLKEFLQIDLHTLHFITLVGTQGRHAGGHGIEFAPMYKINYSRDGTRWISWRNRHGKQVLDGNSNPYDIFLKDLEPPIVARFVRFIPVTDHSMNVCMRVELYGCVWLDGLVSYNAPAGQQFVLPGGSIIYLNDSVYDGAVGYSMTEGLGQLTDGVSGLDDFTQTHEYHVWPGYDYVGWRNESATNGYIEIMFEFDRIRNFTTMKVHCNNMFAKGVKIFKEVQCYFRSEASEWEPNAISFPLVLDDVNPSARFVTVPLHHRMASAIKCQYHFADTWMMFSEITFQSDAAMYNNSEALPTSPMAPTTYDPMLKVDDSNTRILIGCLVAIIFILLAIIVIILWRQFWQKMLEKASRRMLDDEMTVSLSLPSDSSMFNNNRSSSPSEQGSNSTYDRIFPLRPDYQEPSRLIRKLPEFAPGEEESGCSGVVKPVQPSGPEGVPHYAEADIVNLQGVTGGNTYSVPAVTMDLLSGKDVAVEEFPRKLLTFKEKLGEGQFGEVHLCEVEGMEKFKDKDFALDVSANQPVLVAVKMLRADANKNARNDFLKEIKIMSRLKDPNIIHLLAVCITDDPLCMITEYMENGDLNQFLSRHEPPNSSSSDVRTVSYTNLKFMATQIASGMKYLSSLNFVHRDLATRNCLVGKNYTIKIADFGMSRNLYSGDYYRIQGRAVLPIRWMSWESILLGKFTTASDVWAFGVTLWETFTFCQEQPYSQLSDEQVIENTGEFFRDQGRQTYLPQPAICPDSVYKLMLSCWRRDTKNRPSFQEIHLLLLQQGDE
B6: Mothers against decapentaplegic homolog 4 (Homo sapiens), Q13485 (parent)
chain: B1 chain
partner: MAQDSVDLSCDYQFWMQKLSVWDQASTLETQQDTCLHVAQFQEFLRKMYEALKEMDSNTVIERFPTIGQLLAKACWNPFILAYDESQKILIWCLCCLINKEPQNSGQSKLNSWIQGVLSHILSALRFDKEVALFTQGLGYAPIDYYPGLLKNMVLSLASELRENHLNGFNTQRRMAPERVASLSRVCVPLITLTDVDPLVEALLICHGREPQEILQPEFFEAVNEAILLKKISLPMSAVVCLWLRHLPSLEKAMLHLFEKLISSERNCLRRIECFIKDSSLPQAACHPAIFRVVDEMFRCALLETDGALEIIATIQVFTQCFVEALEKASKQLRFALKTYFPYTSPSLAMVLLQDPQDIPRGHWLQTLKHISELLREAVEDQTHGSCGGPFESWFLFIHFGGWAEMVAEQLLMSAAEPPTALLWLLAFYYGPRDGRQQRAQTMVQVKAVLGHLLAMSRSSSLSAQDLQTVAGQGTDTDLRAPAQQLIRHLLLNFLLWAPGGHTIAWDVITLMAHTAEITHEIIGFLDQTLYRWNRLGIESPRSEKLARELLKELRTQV
B7: Mothers against decapentaplegic homolog 4 (Homo sapiens), Q13485 (parent)
chain: B1 chain
partner: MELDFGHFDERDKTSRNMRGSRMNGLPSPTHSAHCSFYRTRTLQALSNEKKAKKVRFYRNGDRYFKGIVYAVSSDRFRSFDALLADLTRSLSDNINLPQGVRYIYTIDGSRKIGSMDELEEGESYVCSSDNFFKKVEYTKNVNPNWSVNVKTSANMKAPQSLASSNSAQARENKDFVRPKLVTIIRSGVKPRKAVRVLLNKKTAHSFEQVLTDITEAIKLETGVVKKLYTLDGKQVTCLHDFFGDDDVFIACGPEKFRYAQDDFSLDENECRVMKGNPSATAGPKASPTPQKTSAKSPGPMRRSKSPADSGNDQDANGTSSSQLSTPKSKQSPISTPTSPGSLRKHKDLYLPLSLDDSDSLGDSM

Variants of: B1
Details: with ikkb_human IKBKB

| Variant | effect of a mutation on the interaction |
| --- | --- |
| R361H | with no effect |

Variants of: B1
Details: with ikkb_human IKBKB
Remark: another data set of the same source

| Variant | effect of a mutation on the interaction |
| --- | --- |
| G386D | with no effect |

Variants of: B2
Details: with anxa7_human ANXA7, P20073

| Variant | effect of a mutation on the interaction |
| --- | --- |
| G386D | with no effect |

Variants of: B2
Details: with anxa7_human ANXA7, P20073
Remark: another data set of the same source

| Variant | effect of a mutation on the interaction |
| --- | --- |
| R361H | with no effect |

Variants of: B2
Details: with anxa7_human ANXA7, P20073
Remark: another data set of the same source

| Variant | effect of a mutation on the interaction |
| --- | --- |
| R361C | with no effect |

Variants of: B2
Details: with anxa7_human ANXA7, P20073
Remark: another data set of the same source

| Variant | effect of a mutation on the interaction |
| --- | --- |
| D351H | with no effect |

Variants of: B3
Details: with irf4_human IRF4, Q15306

| Variant | effect of a mutation on the interaction |
| --- | --- |
| D351H | with no effect |

Variants of: B3
Details: with irf4_human IRF4, Q15306
Remark: another data set of the same source

| Variant | effect of a mutation on the interaction |
| --- | --- |
| G386D | with no effect |

Variants of: B3
Details: with irf4_human IRF4, Q15306
Remark: another data set of the same source

| Variant | effect of a mutation on the interaction |
| --- | --- |
| R361H | with no effect |

Variants of: B3
Details: with irf4_human IRF4, Q15306
Remark: another data set of the same source

| Variant | effect of a mutation on the interaction |
| --- | --- |
| R361C | with no effect |

Variants of: B4
Details: with mp2k3_human MAP2K3, P46734

| Variant | effect of a mutation on the interaction |
| --- | --- |
| R361C | with no effect |

Variants of: B4
Details: with mp2k3_human MAP2K3, P46734
Remark: another data set of the same source

| Variant | effect of a mutation on the interaction |
| --- | --- |
| D351H | with no effect |

Variants of: B4
Details: with mp2k3_human MAP2K3, P46734
Remark: another data set of the same source

| Variant | effect of a mutation on the interaction |
| --- | --- |
| G386D | with no effect |

Variants of: B5
Details: with ddr2_human DDR2, Q16832

| Variant | effect of a mutation on the interaction |
| --- | --- |
| R361H | with no effect |

Variants of: B5
Details: with ddr2_human DDR2, Q16832
Remark: another data set of the same source

| Variant | effect of a mutation on the interaction |
| --- | --- |
| R361C | with no effect |

Variants of: B5
Details: with ddr2_human DDR2, Q16832
Remark: another data set of the same source

| Variant | effect of a mutation on the interaction |
| --- | --- |
| G386D | with no effect |

Variants of: B5
Details: with ddr2_human DDR2, Q16832
Remark: another data set of the same source

| Variant | effect of a mutation on the interaction |
| --- | --- |
| D351H | with no effect |

Variants of: B6
Details: with fancc_human FANCC

| Variant | effect of a mutation on the interaction |
| --- | --- |
| D351H | with no effect |

Variants of: B6
Details: with fancc_human FANCC
Remark: another data set of the same source

| Variant | effect of a mutation on the interaction |
| --- | --- |
| G386D | with no effect |

Variants of: B6
Details: with fancc_human FANCC
Remark: another data set of the same source

| Variant | effect of a mutation on the interaction |
| --- | --- |
| R361H | with no effect |

Variants of: B6
Details: with fancc_human FANCC
Remark: another data set of the same source

| Variant | effect of a mutation on the interaction |
| --- | --- |
| R361C | with no effect |

Variants of: B7
Details: with dcx_human DCX

| Variant | effect of a mutation on the interaction |
| --- | --- |
| R361H | with no effect |

Variants of: B7
Details: with dcx_human DCX
Remark: another data set of the same source

| Variant | effect of a mutation on the interaction |
| --- | --- |
| R361C | with no effect |

Variants of: B7
Details: with dcx_human DCX
Remark: another data set of the same source

| Variant | effect of a mutation on the interaction |
| --- | --- |
| D351H | with no effect |
